Experimental data: publication PMC10786891, “Massively parallel profiling of RNA-targeting CRISPR-Cas13d”
Changes are numbered by the printed parent chain. In names and notes the source's numbering stands.

T1: EsCas13d, nuclease-dead (Eubacterium siraeum, UniProt B0MS50, R295A;H300A;R849A;H854A)
T1 sequence: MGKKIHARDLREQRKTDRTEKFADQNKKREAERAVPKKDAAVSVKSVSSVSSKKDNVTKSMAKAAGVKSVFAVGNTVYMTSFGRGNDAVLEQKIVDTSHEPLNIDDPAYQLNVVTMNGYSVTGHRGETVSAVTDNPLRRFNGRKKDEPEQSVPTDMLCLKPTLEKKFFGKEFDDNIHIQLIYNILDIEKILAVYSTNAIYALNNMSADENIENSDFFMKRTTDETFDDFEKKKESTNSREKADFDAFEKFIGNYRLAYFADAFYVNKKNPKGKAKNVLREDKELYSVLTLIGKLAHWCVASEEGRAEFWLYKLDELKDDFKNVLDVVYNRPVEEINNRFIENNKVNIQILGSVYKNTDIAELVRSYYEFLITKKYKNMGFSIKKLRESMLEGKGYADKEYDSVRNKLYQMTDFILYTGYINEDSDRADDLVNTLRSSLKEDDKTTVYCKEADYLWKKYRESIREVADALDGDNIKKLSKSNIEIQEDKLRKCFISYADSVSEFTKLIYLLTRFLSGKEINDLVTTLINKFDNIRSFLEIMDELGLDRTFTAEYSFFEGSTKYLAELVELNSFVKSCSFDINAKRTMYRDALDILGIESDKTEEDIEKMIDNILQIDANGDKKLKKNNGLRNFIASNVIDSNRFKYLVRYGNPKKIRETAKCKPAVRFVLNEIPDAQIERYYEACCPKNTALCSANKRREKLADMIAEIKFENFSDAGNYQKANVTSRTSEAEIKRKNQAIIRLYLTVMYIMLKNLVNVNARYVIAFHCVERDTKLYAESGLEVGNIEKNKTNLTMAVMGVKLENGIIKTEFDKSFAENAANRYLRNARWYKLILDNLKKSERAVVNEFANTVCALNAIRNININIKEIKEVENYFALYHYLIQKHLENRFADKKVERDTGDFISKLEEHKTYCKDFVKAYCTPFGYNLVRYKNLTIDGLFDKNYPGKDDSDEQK

B1: target 2 MT 5'PFS AGC 3'PFS UCC (mixed)
RNA 1: CACCCGUGCAAAAUUGCAGGGGUCUAAAACCUUCUCCAAAUUGUUUCAUCCU
RNA 2: GGGAAUGGAUCCACAUCUACGAAUUCAGCAGGAUGAAACAAUUUGGAGAAGUCCAGAUCGGAAGAGCACACGU
B2: target 2 MT 5'PFS UUA 3'PFS CAG (mixed)
RNA 1: B1 RNA 1
RNA 2: B1 RNA 2 with A27U, G28U, C29A, U52C, C53A, C54G
B3: target 2 MT 5'PFS UUA 3'PFS CAC (mixed)
RNA 1: B1 RNA 1
RNA 2: B1 RNA 2 with A27U, G28U, C29A, U52C, C53A
B4: target 2 MT 5'PFS AUA 3'PFS UUA (mixed)
RNA 1: B1 RNA 1
RNA 2: B1 RNA 2 with G28U, C29A, C53U, C54A
B5: target 2 MT 5'PFS GGG 3'PFS ACU (mixed)
RNA 1: B1 RNA 1
RNA 2: B1 RNA 2 with A27G, C29G, U52A, C54U
B6: target 2 MT 5'PFS GGC 3'PFS CUC (mixed)
RNA 1: B1 RNA 1
RNA 2: B1 RNA 2 with A27G, U52C, C53U
B7: target 2 MT 5'PFS CAG 3'PFS UUC (mixed)
RNA 1: B1 RNA 1
RNA 2: B1 RNA 2 with A27C, G28A, C29G, C53U
B8: target 2 MT 5'PFS UGA 3'PFS AAA (mixed)
RNA 1: B1 RNA 1
RNA 2: B1 RNA 2 with A27U, C29A, U52A, C53A, C54A
B9: target 2 MT 5'PFS CAA 3'PFS CUA (mixed)
RNA 1: B1 RNA 1
RNA 2: B1 RNA 2 with A27C, G28A, C29A, U52C, C53U, C54A
B10: target 2 MT 5'PFS AUA 3'PFS UUC (mixed)
RNA 1: B1 RNA 1
RNA 2: B1 RNA 2 with G28U, C29A, C53U
B11: target 2 MT 5'PFS GGC 3'PFS CUA (mixed)
RNA 1: B1 RNA 1
RNA 2: B1 RNA 2 with A27G, U52C, C53U, C54A
B12: target 2 MT 5'PFS UGA 3'PFS CCG (mixed)
RNA 1: B1 RNA 1
RNA 2: B1 RNA 2 with A27U, C29A, U52C, C54G
B13: target 2 MT 5'PFS AAA 3'PFS ACA (mixed)
RNA 1: B1 RNA 1
RNA 2: B1 RNA 2 with G28A, C29A, U52A, C54A
B14: target 2 MT 5'PFS UAG 3'PFS CAC (mixed)
RNA 1: B1 RNA 1
RNA 2: B1 RNA 2 with A27U, G28A, C29G, U52C, C53A
B15: target 2 MT 5'PFS UGA 3'PFS AAU (mixed)
RNA 1: B1 RNA 1
RNA 2: B1 RNA 2 with A27U, C29A, U52A, C53A, C54U
B16: target 2 MT 5'PFS AGC 3'PFS UCU (mixed)
RNA 1: B1 RNA 1
RNA 2: B1 RNA 2 with C54U
B17: target 2 MT 5'PFS GGC 3'PFS CUU (mixed)
RNA 1: B1 RNA 1
RNA 2: B1 RNA 2 with A27G, U52C, C53U, C54U
B18: target 2 MT 5'PFS UCA 3'PFS UAU (mixed)
RNA 1: B1 RNA 1
RNA 2: B1 RNA 2 with A27U, G28C, C29A, C53A, C54U
B19: target 2 MT 5'PFS CGU 3'PFS ACG (mixed)
RNA 1: B1 RNA 1
RNA 2: B1 RNA 2 with A27C, C29U, U52A, C54G
B20: target 2 MT 5'PFS UUA 3'PFS CAU (mixed)
RNA 1: B1 RNA 1
RNA 2: B1 RNA 2 with A27U, G28U, C29A, U52C, C53A, C54U
B21: target 2 MT 5'PFS UGA 3'PFS AAG (mixed)
RNA 1: B1 RNA 1
RNA 2: B1 RNA 2 with A27U, C29A, U52A, C53A, C54G
B22: target 2 MT 5'PFS UUA 3'PFS CAA (mixed)
RNA 1: B1 RNA 1
RNA 2: B1 RNA 2 with A27U, G28U, C29A, U52C, C53A, C54A
B23: target 2 MT 5'PFS GGG 3'PFS ACC (mixed)
RNA 1: B1 RNA 1
RNA 2: B1 RNA 2 with A27G, C29G, U52A
B24: target 2 MT 5'PFS UGA 3'PFS AAC (mixed)
RNA 1: B1 RNA 1
RNA 2: B1 RNA 2 with A27U, C29A, U52A, C53A
B25: target 2 MT 5'PFS GGG 3'PFS ACA (mixed)
RNA 1: B1 RNA 1
RNA 2: B1 RNA 2 with A27G, C29G, U52A, C54A
B26: target 2 MT 5'PFS UCA 3'PFS UAG (mixed)
RNA 1: B1 RNA 1
RNA 2: B1 RNA 2 with A27U, G28C, C29A, C53A, C54G
B27: target 2 MT 5'PFS CUC 3'PFS UGA (mixed)
RNA 1: B1 RNA 1
RNA 2: B1 RNA 2 with A27C, G28U, C53G, C54A
B28: target 2 MT 5'PFS GGC 3'PFS CUG (mixed)
RNA 1: B1 RNA 1
RNA 2: B1 RNA 2 with A27G, U52C, C53U, C54G
B29: target 2 MT 5'PFS CAA 3'PFS CUC (mixed)
RNA 1: B1 RNA 1
RNA 2: B1 RNA 2 with A27C, G28A, C29A, U52C, C53U
B30: target 2 MT 5'PFS UCA 3'PFS UAC (mixed)
RNA 1: B1 RNA 1
RNA 2: B1 RNA 2 with A27U, G28C, C29A, C53A
B31: target 2 MT 5'PFS GGG 3'PFS ACG (mixed)
RNA 1: B1 RNA 1
RNA 2: B1 RNA 2 with A27G, C29G, U52A, C54G
B32: target 2 MT 5'PFS AAA 3'PFS ACC (mixed)
RNA 1: B1 RNA 1
RNA 2: B1 RNA 2 with G28A, C29A, U52A
B33: target 2 MT 5'PFS UGA 3'PFS CCA (mixed)
RNA 1: B1 RNA 1
RNA 2: B1 RNA 2 with A27U, C29A, U52C, C54A
B34: target 2 MT 5'PFS CUC 3'PFS UGC (mixed)
RNA 1: B1 RNA 1
RNA 2: B1 RNA 2 with A27C, G28U, C53G
B35: target 1 G17C,A18G (mixed)
RNA 1: CACCCGUGCAAAAAUGCAGGGGUCUAAAACUGAGCGGAUAACCUCUCUAUGG
RNA 2: GGGAAUGGAUCCACAUCUACGAAUUCGUACCAUGCAGAGGUUAUCCGCUCACCGAGAUCGGAAGAGCACACGU
B36: target 1 insU 3' of 12,insU 3' of 1 (mixed)
RNA 1: B35 RNA 1
RNA 2: GGGAAUGGAUCCACAUCUACGAAUUCGUACCAUAGAGAGGUUUAUCCGCUCAUCCGAGAUCGGAAGAGCACACGU
B37: target 1 A14U,A16C (mixed)
RNA 1: B35 RNA 1
RNA 2: B35 RNA 2 with G34A, C35G, A36C, A38U
B38: target 1 C6U,A16G (mixed)
RNA 1: B35 RNA 1
RNA 2: B35 RNA 2 with G34A, C35G, A36G, C46U

molecular target: T1, EsCas13d, nuclease-dead; test: crRNA (strand 1, pre-loaded); Mg2+; 40 mM Tris-HCl pH 7.5, 150 mM NaCl, 6 mM MgCl2, 1 mM DTT, 0.1% Tween-20, 0.2 mg/ml BSA; 25 C; 10 min per concentration, then washed; conditions: tags: His6-TwinStrep-SUMO cleaved; N-terminal SNAP kept (SNAP-Surface 488); label: 3' end held by stalled T7 RNA polymerase

Binder	Kd [nM]
B1	23 ± 4
B2	18.5 ± 1.9
B3	30 ± 7
B4	10.7 ± 1.7
B5	9.3 ± 0.4
B6	13.2 ± 1.2
B7	19 ± 8
B8	9 ± 2.9
B9	~5
B10	13.4 ± 2.4
B11	12 ± 1.9
B12	9.2 ± 1
B13	7.8 ± 2.2
B14	2.69 ± 0.34
B15	6.2 ± 0.8
B16	16.1 ± 2.8
B17	17.6 ± 1.8
B18	5.1 ± 0.7
B19	21 ± 5

Binder	Kd [nM]
B20	14.3 ± 1.3
B21	7.4 ± 0.9
B22	14.4 ± 2.6
B23	22 ± 4
B24	10.1 ± 2.4
B25	9.4 ± 0.8
B26	3.9 ± 0.5
B27	1.66 ± 0.33
B28	12.9 ± 1.3
B29	5.3 ± 2.1
B30	5.7 ± 0.9
B31	10.4 ± 0.6
B32	9.2 ± 2.8
B33	15.6 ± 2.8
B34	1.98 ± 0.26
B35	~90
B36	8.23 ± 0.33
B37	100 ± 40
B38	31.9 ± 2.2
